Measurements taken from article PMC4870127.

Experiments:
Assay in all cases: FXa generation assay
[1] = biological target: Factor VIIIa (WT), thrombin-activated WT B-domainless FVIII
[2] = biological target: Factor VIIIa D666S/S1787D swap variant (thrombin-activated B-domainless FVIII)
[3] = biological target: Factor VIIIa T657Y/Y1792T swap variant (thrombin-activated B-domainless FVIII)

“FIXaβ (from UniProt P00740 47-191; P00740 227-461) (enzyme)” was tested, and the Kd [1] was 0.92 nM, the Kd [2] was 1.73 nM and the Kd [3] was 1.45 nM.
